According to US20210348152A1 (TECHNION RESEARCH AND DEVELOPMENT FOUNDATION, published 2021):

B1: KPC1Δ1-1042 (FLAG-tagged) (enzyme)
chain: EFIGMIQEIQQAAERLERNFVDSRQLKVCATCFDLSVSLLRVLEMTITLVPEIFLDWTRPTSEMLLRRLAQLLNQVLNRVTAERNLFDRVVTLRLPGLESVDHYPILVAVTGILVQLLVRGPASEREQATSVLLADPCFQLRSICYLLGQPEPPAPGTALPAPDRKRFSLQSYADYISADELAQVEQMLAHLTSASAQAAAASLPTSEEDLCPICYAHPISAVFQPCGHKSCKACINQHLMNNKDCFFCKTTIVSVEDWEKGANTSTTSSAA
notes: also called KPC1 species v
B2: ILVRLW-KPC1 Δ 1-1253 (enzyme)
chain: ILVRLWCPICYAHPISAVFQPCGHKSCKACINQHLMNNKDCFFCKTTIVSVEDWEKGANTSTTSSAA
notes: also called KPC1 species xii
B3: WILVRL-KPC1 Δ 1-1253 (enzyme)
chain: WILVRLCPICYAHPISAVFQPCGHKSCKACINQHLMNNKDCFFCKTTIVSVEDWEKGANTSTTSSAA
notes: also called KPC1 species xvii
B4: LVRLW-KPC1 Δ 1-1253 (enzyme)
chain: LVRLWCPICYAHPISAVFQPCGHKSCKACINQHLMNNKDCFFCKTTIVSVEDWEKGANTSTTSSAA
notes: also called KPC1 species xiii
B5: WILVR-KPC1 Δ 1-1253 (enzyme)
chain: WILVRCPICYAHPISAVFQPCGHKSCKACINQHLMNNKDCFFCKTTIVSVEDWEKGANTSTTSSAA
notes: also called KPC1 species xviii
B6: VRLW-KPC1 Δ 1-1253 (enzyme)
chain: VRLWCPICYAHPISAVFQPCGHKSCKACINQHLMNNKDCFFCKTTIVSVEDWEKGANTSTTSSAA
notes: also called KPC1 species xiv
B7: WILV-KPC1 Δ 1-1253 (enzyme)
chain: WILVCPICYAHPISAVFQPCGHKSCKACINQHLMNNKDCFFCKTTIVSVEDWEKGANTSTTSSAA
notes: also called KPC1 species xix
B8: RLW-KPC1 Δ 1-1253 (enzyme)
chain: RLWCPICYAHPISAVFQPCGHKSCKACINQHLMNNKDCFFCKTTIVSVEDWEKGANTSTTSSAA
notes: also called KPC1 species xv
B9: WIL-KPC1 Δ 1-1253 (enzyme)
chain: WILCPICYAHPISAVFQPCGHKSCKACINQHLMNNKDCFFCKTTIVSVEDWEKGANTSTTSSAA
notes: also called KPC1 species xx
B10: KPC1Δ1-973 (FLAG-tagged) (enzyme)
chain: WRGCGFGYRYTRLPHLLKTKLEDANLPSLQKPCPSTLLQQHMADLLQQGPDVAPSFLNSVLNQLNWAFSEFIGMIQEIQQAAERLERNFVDSRQLKVCATCFDLSVSLLRVLEMTITLVPEIFLDWTRPTSEMLLRRLAQLLNQVLNRVTAERNLFDRVVTLRLPGLESVDHYPILVAVTGILVQLLVRGPASEREQATSVLLADPCFQLRSICYLLGQPEPPAPGTALPAPDRKRFSLQSYADYISADELAQVEQMLAHLTSASAQAAAASLPTSEEDLCPICYAHPISAVFQPCGHKSCKACINQHLMNNKDCFFCKTTIVSVEDWEKGANTSTTSSAA
notes: also called KPC1 species ix
B11: KPC1Δ1-1017 (FLAG-tagged) (enzyme)
chain: LLQQGPDVAPSFLNSVLNQLNWAFSEFIGMIQEIQQAAERLERNFVDSRQLKVCATCFDLSVSLLRVLEMTITLVPEIFLDWTRPTSEMLLRRLAQLLNQVLNRVTAERNLFDRVVTLRLPGLESVDHYPILVAVTGILVQLLVRGPASEREQATSVLLADPCFQLRSICYLLGQPEPPAPGTALPAPDRKRFSLQSYADYISADELAQVEQMLAHLTSASAQAAAASLPTSEEDLCPICYAHPISAVFQPCGHKSCKACINQHLMNNKDCFFCKTTIVSVEDWEKGANTSTTSSAA
notes: Lacks amino acids 1-1017; also called KPC1 species x
B12: KPC1 Δ 1-1253 (enzyme)
chain: CPICYAHPISAVFQPCGHKSCKACINQHLMNNKDCFFCKTTIVSVEDWEKGANTSTTSSAA
notes: also called KPC1 species xvi
B13: p105-HA (other, UniProt P19838 1-968, looked up)
chain: MAEDDPYLGRPEQMFHLDPSLTHTIFNPEVFQPQMALPTDGPYLQILEQPKQRGFRFRYVCEGPSHGGLPGASSEKNKKSYPQVKICNYVGPAKVIVQLVTNGKNIHLHAHSLVGKHCEDGICTVTAGPKDMVVGFANLGILHVTKKKVFETLEARMTEACIRGYNPGLLVHPDLAYLQAEGGGDRQLGDREKELIRQAALQQTKEMDLSVVRLMFTAFLPDSTGSFTRRLEPVVSDAIYDSKAPNASNLKIVRMDRTAGCVTGGEEIYLLCDKVQKDDIQIRFYEEEENGGVWEGFGDFSPTDVHRQFAIVFKTPKYKDINITKPASVFVQLRRKSDLETSEPKPFLYYPEIKDKEEVQRKRQKLMPNFSDSFGGGSGAGAGGGGMFGSGGGGGGTGSTGPGYSFPHYGFPTYGGITFHPGTTKSNAGMKHGTMDTESKKDPEGCDKSDDKNTVNLFGKVIETTEQDQEPSEATVGNGEVTLTYATGTKEESAGVQDNLFLEKAMQLAKRHANALFDYAVTGDVKMLLAVQRHLTAVQDENGDSVLHLAIIHLHSQLVRDLLEVTSGLISDDIINMRNDLYQTPLHLAVITKQEDVVEDLLRAGADLSLLDRLGNSVLHLAAKEGHDKVLSILLKHKKAALLLDHPNGDGLNAIHLAMMSNSLPCLLLLVAAGADVNAQEQKSGRTALHLAVEHDNISLAGCLLLEGDAHVDSTTYDGTTPLHIAAGRGSTRLAALLKAAGADPLVENFEPLYDLDDSWENAGEDEGVVPGTTPLDMATSWQVFDILNGKPYEPEFTSDDLLAQGDMKQLAEDVKLQLYKLLEIPDPDKNWATLAQKLGLGILNNAFRLSPAPSKTLMDNYEVSGGTVRELVEALRQMGYTEAIEVIQAASSPVKTTSQAHSLPLSPASTRQQIDELRDSDSVCDSGVETSFRKLSFTESLTSGASLLTLNKMPHDYGQEGPLEGKI
notes: Co-expressed with FLAG-tagged KPC1 species in HEK293T cells and detected with anti-NF-κB1 after anti-FLAG immunoprecipitation; also called NF-κB1 p105; NF-kB1 p105; not shown: HA tag

Target: B13
Assay: co-immunoprecipitation (anti-FLAG) from HEK293T cells, western blot
Protocol: (§1) HEK293T cells were transiently transfected with the various KPC1 species along with p105-HA using the j etPEI reagent. 48 hours after transfection, the cells were harvested and lysed with RIPA buffer [150 mM NaCl, 0.5% sodium deoxycholate, 50 mM Tris-HCl (pH 8.0), 0.1% SDS, and 1% NP-40, supplemented with freshly added protease inhibitors mixture]. KPC1 species proteins were immunoprecipitated with immobilized anti-FLAG, with subsequent washing of the beads five times with RIPA buffer. The immunoprecipitated proteins were resolved by SDS-PAGE (10%, FIGS. 1A, 1B, 2A and 2B, with a gel gradient, of 4-20%; FIGS. 3A and 3B), and blotted onto nitrocellulose (FIGS. 1A, 1B, 2A and 2B) or PVDF (FIGS. 3A and 3B) membranes. p105 and KPC1 species were visualized using anti-NF-kB1 or anti-FLAG antibodies, respectively.
(§2) Identification of the region of KPC1 that is responsible for the interaction with p105. In order to identify the region of KPC1 that is responsible for the interaction with p105, several truncated segments of the DNA sequence of the KPC1 protein were cloned. The truncated segments were inserted into the pCAGGS expression vector to analyze their interaction with p105 by co-immunoprecipitation (Co-IP) from cells. HEK 293T cells were transfected with cDNAs coding for p105-HA, along with different fragments of KPC1 (FIG. 1A). Species of KPC1 were immunoprecipitated using an immobilized anti-Flag antibody. The precipitated proteins were resolved via SDS-PAGE and detected by Western blot using anti NF-κB1 and anti-FLAG antibodies.

Binding result, no binding:
B1
B2
B3
B4
B5
B6
B7
B8
B9
B10
B11
B12

Target: T1, KPC1Δ967-1043 (FLAG-tagged) (Homo sapiens (Human), UniProt Q5XPI4 1-1314)
T1 construct: also called KPC1 species vii
T1 sequence: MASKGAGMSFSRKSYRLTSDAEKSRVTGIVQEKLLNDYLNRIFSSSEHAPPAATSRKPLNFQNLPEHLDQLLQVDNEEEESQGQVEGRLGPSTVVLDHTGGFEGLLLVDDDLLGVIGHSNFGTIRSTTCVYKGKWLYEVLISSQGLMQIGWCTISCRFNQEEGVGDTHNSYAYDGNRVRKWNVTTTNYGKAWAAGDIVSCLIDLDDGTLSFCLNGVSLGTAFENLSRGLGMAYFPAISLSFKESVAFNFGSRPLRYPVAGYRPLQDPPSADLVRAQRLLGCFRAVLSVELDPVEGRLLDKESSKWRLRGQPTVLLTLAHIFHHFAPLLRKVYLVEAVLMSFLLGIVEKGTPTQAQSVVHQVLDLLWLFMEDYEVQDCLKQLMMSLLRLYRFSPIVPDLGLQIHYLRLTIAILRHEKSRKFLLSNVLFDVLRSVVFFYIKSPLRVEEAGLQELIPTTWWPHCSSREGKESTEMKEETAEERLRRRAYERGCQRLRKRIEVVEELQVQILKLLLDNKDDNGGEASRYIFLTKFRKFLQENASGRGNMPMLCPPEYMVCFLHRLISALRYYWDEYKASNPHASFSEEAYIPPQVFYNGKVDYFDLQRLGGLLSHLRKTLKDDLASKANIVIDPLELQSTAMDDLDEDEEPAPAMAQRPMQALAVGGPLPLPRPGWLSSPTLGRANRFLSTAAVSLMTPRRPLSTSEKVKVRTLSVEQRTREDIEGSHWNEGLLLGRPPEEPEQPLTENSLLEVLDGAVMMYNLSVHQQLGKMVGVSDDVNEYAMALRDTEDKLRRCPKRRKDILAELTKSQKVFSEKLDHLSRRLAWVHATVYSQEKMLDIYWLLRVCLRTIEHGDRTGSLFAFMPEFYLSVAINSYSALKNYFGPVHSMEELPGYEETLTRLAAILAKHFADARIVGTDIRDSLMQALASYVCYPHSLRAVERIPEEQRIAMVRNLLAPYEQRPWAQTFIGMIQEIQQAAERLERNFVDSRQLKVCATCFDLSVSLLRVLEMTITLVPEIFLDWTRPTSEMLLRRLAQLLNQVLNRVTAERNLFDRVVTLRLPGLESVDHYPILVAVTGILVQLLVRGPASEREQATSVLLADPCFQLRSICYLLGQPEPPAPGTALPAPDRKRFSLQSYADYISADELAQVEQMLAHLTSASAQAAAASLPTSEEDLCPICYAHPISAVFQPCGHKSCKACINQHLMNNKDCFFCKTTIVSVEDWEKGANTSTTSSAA
Assay: as above
Protocol: as §1, §2

Binding result, no binding:
B13
